Assay results: PMC6973334
Where “and” joins values, the source holds several entries; their conditions need not be identical. Identical values can stand only once. Like-named read-outs stand apart in the source and are kept apart here.

Tests used:
[1] = target: LINGO-1 ectodomain (free ectodomain made from LINGO-1-Fc by limited proteolysis with chymotrypsin) (Homo sapiens); assay: SEC
[2] = target: LINGO-1 ectodomain (free ectodomain made from LINGO-1-Fc by limited proteolysis with chymotrypsin) (Homo sapiens); assay: SEC-MALS
[3] = target: LINGO-1 ectodomain (free ectodomain made from LINGO-1-Fc by limited proteolysis with chymotrypsin) (Homo sapiens); assay: SEC-MALS; remark: listed apart in the source

LINGO-1 ectodomain (free ectodomain made from LINGO-1-Fc by limited proteolysis with chymotrypsin) (Homo sapiens), sequence (Q96FE5 42-561): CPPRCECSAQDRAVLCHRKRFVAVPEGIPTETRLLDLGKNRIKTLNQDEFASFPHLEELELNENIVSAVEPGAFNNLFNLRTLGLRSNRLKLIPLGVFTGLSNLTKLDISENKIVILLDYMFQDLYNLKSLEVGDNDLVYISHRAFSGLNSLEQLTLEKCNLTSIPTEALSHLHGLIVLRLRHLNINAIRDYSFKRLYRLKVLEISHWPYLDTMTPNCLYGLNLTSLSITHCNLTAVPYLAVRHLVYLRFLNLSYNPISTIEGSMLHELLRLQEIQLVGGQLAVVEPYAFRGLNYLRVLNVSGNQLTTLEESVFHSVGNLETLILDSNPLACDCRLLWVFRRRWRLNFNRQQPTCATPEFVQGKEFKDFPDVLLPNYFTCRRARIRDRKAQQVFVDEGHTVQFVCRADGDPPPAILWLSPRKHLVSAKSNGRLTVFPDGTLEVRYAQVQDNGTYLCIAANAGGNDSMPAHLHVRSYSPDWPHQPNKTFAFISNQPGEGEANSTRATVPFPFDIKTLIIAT

Li81 R18S/R54T mAb (antibody)
reduction of the concatemer peaks [1]: 50%

Li81 R18S/S31R mAb (antibody)
reduction of the concatemer peaks [1]: 25%

Li81 R18S/S31R/R54T mAb (antibody)
stoichiometry N (LINGO-1 per mAb) [2]: 2 and 1 | stoichiometry N (LINGO-1 per mAb) [3]: 2
